Experimental data reported in PMC10945830.

Target: Anthopleura YFP (AnthoYFP) from Neon Anthopleura sola (Anthopleura sola (endogenous in tentacles))
Experiment: SEC-MALS; isolated AnthoYFP pigment; self-association, tetramer; conditions of the SEC-MALS run not told in the main text

Substance: Anthopleura YFP (AnthoYFP) from Neon Anthopleura sola (natural protein)
- stoichiometry N: 4
